These results are taken from US20250340640A1 (published 2025).

The target of test [1] is T1, recombinant protein TCRVB 6-5 (human, captured on a Biotin CAP sensor chip, so presumably biotinylated; the site is not stated).
T1 construct: also called TCRVβ 6-5; TCRβ V6-5*01
T1 TCR beta: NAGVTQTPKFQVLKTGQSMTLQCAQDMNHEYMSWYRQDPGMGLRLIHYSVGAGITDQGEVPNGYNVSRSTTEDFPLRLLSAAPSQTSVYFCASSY
Description: SPR, compared with BJM0277. The protocol:
(§1) TCRVB 6-5 at 5 μg/mL was immobilized on a Biotin CAP Series S Sensor Chip to 60 RU. A-H.52 was diluted to 50 nM and then serially diluted two fold. Association was 120 seconds, dissociation was 300 seconds. This assay was run in 1×HBS-EP+ Buffer pH 7.4 and 25C. The data was fit using a 1:1 binding model. A-H.52 is a phage clones and is a monovalent scFv. A-H.52 has two mutations on CDRH1.
(§2) TCRVB 6-5 at 5 ug/mL was immobilized on a Biotin CAP Series S Sensor Chip to 60 RU. A-H.53 was diluted to 50 nM and then serially diluted two fold. Association was 120 seconds, dissociation was 300 seconds. This assay was run in 1×HBS-EP+ Buffer pH 7.4 and 25C. The data was fit using a 1:1 binding model. A-H.53 (phage clone) affinity is in the pM range (Table 16).
(§3) TCRVB 6-5 at 5 μg/mL was immobilized on a Biotin CAP Series S Sensor Chip to 60 RU. A-H.54 was diluted to 50 nM and then serially diluted two fold. Association was 120 seconds, dissociation was 300 seconds. This assay was run in 1×HBS-EP+ Buffer pH 7.4 and 25C. The data was fit using a 1:1 binding model.
A general note: SPR reads the build-up and loss of mass on a sensor chip optically.

Test [2] addresses T1, recombinant protein TCRVB 6-5. Description: SPR, TCRVB 6-5 captured on Biotin CAP Series S chip, 1:1 model, 25C. How it is done: as §1, §2, §3

B1: A-H.52 (scFv)
scFv: QVQLVQSGAEVKKPGSSVKVSCKASGYSFTLGYIHWVRQAPGQGLEWMGWFFPGSGNIKYNEKFKGRVTITADTSTSTAYMELSSLRSEDTAVYYCAGSYYSYDVLDYWGQGTTVTVSSGGGGSGGGGSGGGGSGGGGSDIQMTQSPSFLSASVGDRVTITCKASQNVGINVVWHQQKPGKAPKALIYSSSHRYSGVPSRFSGSGSGTEFTLTISSLQPEDFATYFCQQFKSYPLTFGQGTKLEIK
notes: also called phage clone; monovalent scFv
B1: the “fold greater affinity than BJM0277” value in test [1] is 20 fold. The dissociation constant (Kd) in test [2] amounted to 1.76 nM.

B2: A-H.53 (scFv)
scFv: QVQLVQSGAEVKKPGSSVKVSCKASGYSFRLTYIHWVRQAPGQGLEWMGWFFPGSGNIKYNEKFKGRVTITADTSTSTAYMELSSLRSEDTAVYYCAGSYYSYDVLDYWGQGTTVTVSSGGGGSGGGGSGGGGSGGGGSDIQMTQSPSFLSASVGDRVTITCKASQNVGINVVWHQQKPGKAPKALIYSSSHRYSGVPSRFSGSGSGTEFTLTISSLQPEDFATYFCQQFKSYPLTFGQGTKLEIK
notes: Described only as a phage clone; also called phage clone
For the molecule B2, the “fold greater affinity than BJM0277” value in test [1] amounted to 200 fold. The Kd in test [2] came out at 0.165 nM.

B3: A-H.54 (scFv)
scFv: QVQLVQSGAEVKKPGSSVKVSCKASGYSFHNWYIHWVRQAPGQGLEWMGWFFPGSGNIKYNEKFKGRVTITADTSTSTAYMELSSLRSEDTAVYYCAGSYYSYDVLDYWGQGTTVTVSSGGGGSGGGGSGGGGSGGGGSDIQMTQSPSFLSASVGDRVTITCKASQNVGINVVWHQQKPGKAPKALIYSSSHRYSGVPSRFSGSGSGTEFTLTISSLQPEDFATYFCQQFKSYPLTFGQGTKLEIK
notes: as for B2
For B3, the “fold greater affinity than BJM0277” value in test [1] was determined as 17 fold. In test [2], the Kd came out at 2.22 nM.

As usually defined, the Kd is the concentration at which binding is half-saturated.
